What was measured:
[1] = molecular target: AcrIIA22 2-amino acid C-terminal truncation mutant (thrombin-cleaved) (unnamed clostridial genus CAG-217 (human gut metagenome)); experiment: SEC; thrombin-cleaved AcrIIA22 variants; Superdex75 16/60; 25 mM Tris pH 7.5, 200 mM NaCl; size against protein standards
[2] = molecular target: AcrIIA22 (thrombin-cleaved, from the N-terminal His6 construct) (unnamed clostridial genus CAG-217 (human gut metagenome)); experiment: as above

Substance	stoichiometry N [1]	stoichiometry N [2]
AcrIIA22 2-amino acid C-terminal truncation mutant (thrombin-cleaved) (domain or fragment)	2	–
AcrIIA22 (thrombin-cleaved, from the N-terminal His6 construct) (natural protein)	–	4

Source: paper PMC8545432
